Data reported in patent publication US20180311300A1 (published 2018).
Where “and” joins values, the source holds several entries; their conditions need not be identical. Identical values can stand only once. Numbered stars: 1 amine (or outer) side, 2 acyl side, 3 side chain; on linkers, the order of the positions; unused ones are H or OH. Bridge positions count the residues as written; N and C are the ends. Square brackets hold non-standard residues; d marks the D form. Ends that are not written are not given here. Intermediate H = 1,1',1''-(1,7,13-trioxa-4,10,16-triazacyclooctadecane-4,10,16-triyl)tris(2-chloroethan-1-one), O=C(C[*:1])N1CCOCCN(C(=O)C[*:2])CCOCCN(C(=O)C[*:3])CCOCC1; Intermediate D = 1,1',1''-(1,4,7-triazonane-1,4,7-triyl)tris(prop-2-en-1-one), O=C(CC[*:1])N1CCN(C(=O)CC[*:2])CCN(C(=O)CC[*:3])CC1; Intermediate K = 1,3,5-tris(vinylsulfonyl)benzene, O=S(=O)(CC[*:1])c1cc(S(=O)(=O)CC[*:2])cc(S(=O)(=O)CC[*:3])c1; Intermediate C = 1,1',1''-(1,4,7-triazonane-1,4,7-triyl)tris(2-chloroethan-1-one); Intermediate I = 1,4,7-tris(vinylsulfonyl)-1,4,7-triazonane; 1Nal = N[C@@H](Cc1cccc2ccccc12)C(=O)O; Tle = CC(C)(C)[C@H](N)C(=O)O

B1: I-54 (peptide)
peptide: AC[dA]NE[1Nal][dA]CEDFYD[Tle]C
modifications: linker 2-8-15 via Intermediate C
notes: also called peptide 4 cyclised with Intermediate C
B2: I-55 (peptide)
peptide: AC[dA]NE[1Nal][dA]CEDFYD[Tle]C
modifications: linker 2-8-15 via Intermediate D
notes: also called peptide 4 cyclised with Intermediate D
B3: I-58 (peptide)
peptide: AC[dA]NE[1Nal][dA]CEDFYD[Tle]C
modifications: linker 2-8-15 via Intermediate H
notes: also called peptide 4 cyclised with Intermediate H
B4: I-59 (peptide)
peptide: AC[dA]NE[1Nal][dA]CEDFYD[Tle]C
modifications: linker 2-8-15 via Intermediate I
notes: also called peptide 4 cyclised with Intermediate I
B5: I-61 (peptide)
peptide: AC[dA]NE[1Nal][dA]CEDFYD[Tle]C
modifications: linker 2-8-15 via Intermediate K
notes: also called peptide 4 cyclised with Intermediate K

Experiments:
[1] = molecular target: T1, MT1-MMP hemopexin domain (UniProt P50281 319-511); assay: fluorescence polarization (anisotropy) assay on MT1-MMP hemopexin domain; grade A = Ki <50 nM
T1 construct: domain: hemopexin domain; also called hemopexin of MT1-MMP; membrane type 1 metalloprotease
Protocol: (§1) Direct Binding Fluorescence Polarization or Anisotropy Assays are performed by titrating a constant concentration of fluorescent tracer (here, the fluoresceinated bicyclic peptide to be studied) with its binding partner (here, the MT1-MMP hemopexin domain). As the concentration of binding partner increases during the titration, the polarization signal changes in proportion to the fraction of bound and unbound material. This allows determination of […] (Kd) quantitatively. Assay data can be fit using standard ligand binding equations.
(§2) The titrant (binding partner) concentration is varied from 0.1 nM up to typically 5 μM. The range is chosen such that the maximum change in fluorescent polarization can be observed. Buffers employed are phosphate buffered saline in the presence of 0.01% Tween. Experiments were run in black 384 well low-bind/low volume plates (Corning 3820), and the fluorescent polarization signal was measured using a BMG Pherastar FS plate reader. Fluorescent tracers referred to in the text are bicyclic peptides that have been fluoresceinated using 5,6-carboxyfluorescein. Fluoresceination may be performed on the N-terminal amino group of the peptide, which is separated from the bicycle core sequence by a sarcosine spacer (usually Sar5). […]

[2] = molecular target: T1, MT1-MMP hemopexin domain; assay: fluorescence polarization (anisotropy) assay on MT1-MMP hemopexin domain; grade B = Ki >50 nM and <=100 nM
Protocol: as §1, §2

[3] = molecular target: T1, MT1-MMP hemopexin domain; assay: fluorescence polarization (anisotropy) assay on MT1-MMP hemopexin domain; grade D = Ki >1,000 nM
Protocol: as §1, §2

| Binder | Ki [1] [nM] | Ki [2] | further results |
| --- | --- | --- | --- |
| B1 | < 50 |  |  |
| B2 |  | > 50 nM and ≤ 100 nM |  |
| B3 |  | > 50 nM and ≤ 100 nM |  |
| B4 |  |  | Ki [3]: > 1000 nM |
| B5 | < 50 |  |  |
